Laboratory results published in patent US12624123B2, “Compositions and methods for reducing off-target toxicity of antibody drug conjugates” (The Research Foundation for The State University of New York, priority 2019, dated 2026).
Values joined by “and” are separate entries in the source; they are usually repeats but may differ in a detail not shown here. Identical values can stand only once. “Also recorded” adds a separate entry of the source. Like-named read-outs stand apart in the source and are kept apart here.

Legend:
[1] = system: 8C2 mAb; assay: Competitive ELISA of 8C2 with topotecan and SN38 (BSA-topotecan coated); assay type: binding, murine; settings: 8C2 held constant at 10 nM; read-out: IC50 in competitive ELISA vs intact 8C2
Experimental: A competitive ELISA was employed to determine the affinity of intact 8C2 mAb for SN38 and topotecan. A BSA-topotecan conjugate was synthesized and immobilized as previously described (Shah et al., Int J Pharm. 2014; 465(1-2):228-238. doi:10.1016/j.ijpharm.2014.01.038) 8C2 concentration was held constant at 10 nM with increasing concentrations of topotecan or SN38. 8C2 drug samples were incubated for 2 hours at room temperature with agitation. Following incubation, wells were washed three times with 250 μL of PBS-T and three times with dH2O. Wells were then incubated with a 1:500 dilution anti-mouse AP conjugate secondary in PBS-T with 3% BSA for 1 h. After washing, 250 μL of 4 mg/ml PNPP in diethanolamine buffer pH 9.8 with absorbance being read at 405 nm. The change in absorbance over time data was fit to a four-parameter function in GraphPad Prism 7.

[2] = system: LS174T cells; assay: Competitive cell cytotoxicity assay with LS174T cells; assay type: cell-based
Experimental: Log-phase MOLM-14, Ramos (RA 1), HT-29, LS174T, or NCI-N87 cells were seeded in 96-well microtiter plates at a density of 20,000 cells/well, 20,000 cells/well, 5,000 cells/well, 5,000 cells/well, and 10,000 cells/well, respectively, in 100 μL of culture medium. HT-29, LS174T, and NCI-N87 cells were allowed to adhere for 24 h before cell culture media was aspirated and replaced with 100 μL of fresh media containing a range of treatment for, 48 (LS174T), 96 (NCI-N87), or 120 (HT-29) h. MOLM-14 and Ramos cells were re-suspended with treatment solutions, where 100 μL of cell-treatment suspension was aliquoted into wells of a 96-well plate for 24 h. Treatment solutions consisted of calicheamicin, MMAE, topotecan, or SN38 with or without immunized animal plasma, purified anti-drug antibody, or antibody-drug conjugate (ADC) with or without plasma or anti-drug antibody. For MOLM-14 and Ramos cells, 25 μL of MTT solution (5 mg/mL in pH 7.4 1× PBS) was added directly to wells following treatment incubation. For adherent cells, treatment media was aspirated from wells and cells were washed three times with 100 μL of fresh media. Following the final wash, 100 μL of complete media and 25 μL of MTT solution were added to each well. Cells were incubated for 4 h in order to allow cells to reduce MTT to formazan dye. […] Formazan dye was measured at 570 nm and normalized by cell debris at 690 nm.

[3] = system: Lovo cells; assay: MTT cytotoxicity of DM1 and DM4 on Lovo cells; assay type: cell-based; settings: DM4 alone, read-out: IC50 of DM4
Experimental: Log-phase Lovo or MOLM-14 cells were seeded in 96-well microtiter plates at a density of 5,000 cells/well, in 100 μL or 70 μL of culture medium, respectively. […] MOLM-14 cells were re-suspended with treatment solutions, where 100 μL of cell-treatment suspension was aliquoted into wells of a 96-well plate for 24 h. Treatment solutions consisted of DM-4 with or without purified anti-drug sdAb. For MOLM-14 cells, 10 μL of MTT solution (5 mg/mL in pH 7.4 1× PBS) was added directly to wells following treatment incubation. For adherent cells, treatment media was aspirated from wells and cells were washed three times with 100 μL of fresh media. Following the final wash, 100 μL of complete media and 25 μL of MTT solution were added to each well. Cells were incubated for 4 h in order to allow cells to reduce MTT to formazan dye. Once MTT was reduced, 100 μL of 10% SDS prepared in 0.01 M HCl was added to each well and incubated overnight to solubilize the formazan crystals. Formazan dye was measured at 570 nm and normalized by cell debris at 690 nm.

[4] = system: MOLM-14 cells; assay: MTT cytotoxicity of DM4 on MOLM-14 cells (DF3A2); assay type: cell-based, human; settings: DM4 alone
Experimental: Log-phase Lovo or MOLM-14 cells were seeded in 96-well microtiter plates at a density of 5,000 cells/well, in 100 μL or 70 μL of culture medium, respectively. Lovo cells were allowed to adhere for 24 h before cell culture media was aspirated and replaced with 100 μL of PBS containing a range of treatment for 6h, then washed for 2 times before replacing with fresh media and incubated for additional 90 h. MOLM-14 cells were re-suspended with treatment solutions, where 100 μL of cell-treatment suspension was aliquoted into wells of a 96-well plate for 24 h. Treatment solutions consisted of DM-4 with or without purified anti-drug sdAb. For MOLM-14 cells, 10 μL of MTT solution (5 mg/mL in pH 7.4 1× PBS) was added directly to wells following treatment incubation. For adherent cells, treatment media was aspirated from wells and cells were washed three times with 100 μL of fresh media. Following the final wash, 100 μL of complete media and 25 μL of MTT solution were added to each well. Cells were incubated for 4 h in order to allow cells to reduce MTT to formazan dye. Once MTT was reduced, 100 μL of 10% SDS prepared in 0.01 M HCl was added to each well and incubated overnight to solubilize the formazan crystals. Formazan dye was measured at 570 nm and normalized by cell debris at 690 nm.

[5] = system: Trastuzumab deruxtecan; assay: Indirect ELISA of purified sdAb on trastuzumab deruxtecan; assay type: binding
Excerpt: FIG. 16. SDS-PAGE and Indirect ELISA.
FIG. 18. SDS-PAGE and Indirect ELISA.

[6] = system: Ramos cells; assay: MTT cytotoxicity of calicheamicin on Ramos cells; assay type: cell-based; settings: 24 h
Experimental: (§1) Log-phase MOLM-14, Ramos (RA 1), HT-29, LS174T, or NCI-N87 cells were seeded in 96-well microtiter plates at a density of 20,000 cells/well, 20,000 cells/well, 5,000 cells/well, 5,000 cells/well, and 10,000 cells/well, respectively, in 100 μL of culture medium. HT-29, LS174T, and NCI-N87 cells were allowed to adhere for 24 h before cell culture media was aspirated and replaced with 100 μL of fresh media containing a range of treatment for, 48 (LS174T), 96 (NCI-N87), or 120 (HT-29) h. MOLM-14 and Ramos cells were re-suspended with treatment solutions, where 100 μL of cell-treatment suspension was aliquoted into wells of a 96-well plate for 24 h. Treatment solutions consisted of calicheamicin, MMAE, topotecan, or SN38 with or without immunized animal plasma, purified anti-drug antibody, or antibody-drug conjugate (ADC) with or without plasma or anti-drug antibody. For MOLM-14 and Ramos cells, 25 μL of MTT solution (5 mg/mL in pH 7.4 1× PBS) was added directly to wells following treatment incubation. For adherent cells, treatment media was aspirated from wells and cells were washed three times with 100 μL of fresh media. Following the final wash, 100 μL of complete media and 25 μL of MTT solution were added to each well. Cells were incubated for 4 h in order to allow cells to reduce MTT to formazan dye. Once MTT was reduced, 100 μL of 10% SDS prepared in 0.01 M HCl was added to each well and incubated overnight to solubilize the formazan crystals. Formazan dye was measured at 570 nm and normalized by cell debris at 690 nm.
(§2) Fresh media containing a range of treatment were pre-incubated with or without 100 μM purified sdAb at room temperature for 30 minutes. Log-phase MOLM-14 cells were seeded in 96-well microtiter plates at a density of 20,000 cells/well, and were re-suspended with treatment solutions, where 100 μL of cell-treatment suspension was aliquoted into wells of a 96-well plate for 24 h. 25 μL of MTT solution (5 mg/mL in pH 7.4 1× PBS) was added directly to wells following treatment incubation. […] Formazan dye was measured at 570 nm and normalized by cell debris at 690 nm.

[7] = system: MOLM-14 cells; assay: MTT cytotoxicity of calicheamicin on MOLM-14 cells; assay type: cell-based, human; settings: 24 h, 100 μM peptide or sdAb
Experimental: as §1, §2

[8] = sdAb CG4 ELISA and Dynabeads binding assay; settings: for actual fold reduction considering background: 10 μM calicheamicin
Experimental: Nunc Maxisorp 96-well plates were coated with 4 μg/ml Cetuximab or Cetuximab-calicheamicin, or 5 μg/ml Avidin. Plates were washed three times with PBST and three times with dH2O, and blocked with MPBS for 2 h at RT. For the Avidin coated plates, plates were washed three times with PBST and incubated with 1 μM Biotin-Calicheamcin. Plates were then washed three times with PBST and incubated with increasing concentration of purified sdAb CG4 (G4 from FIG. 25) at RT for 2 h, with or without pre-incubation with free Calicheamicin at 10 μM. Plates were then washed three times with PBST, where bound sdAb was detected using an anti-His tag HRP-conjugated Ab diluted 1:1000 in MPBST. Following incubated and five washed with PBST, 100 μL of 1-Step Turbo TMB-ELISA solution was added to each well and incubated for 30 minutes. The reaction was quenched by adding 100 μL of Stop solution to each well and absorbance was measured at 450 nm. Alternatively, wells can also be incubated with 1:1000 diluted anti-His tag AP-conjugated Ab, instead of HRP conjugated Ab. After washing, 4 mg/ml PNPP in diethanolamine buffer pH 9.8 with absorbance being read at 405 nm.
Calicheamicin conjugated dynabeads were washed with PBST and blocked with MPBS for 30 min. Beads were washed three times with PBST and incubated with sdAb for 30 minutes. Bound sdAb were detected with 1:1000 diluted anti-His tag HRP-conjugated Ab. After washed with PBST, beads were resuspended with 500 μL of 1-Step Turbo TMB-ELISA solution and incubated for 30 minutes. The reaction was quenched by adding Stop solution, and absorbance was measured at 450 nm.

[9] = Screening of llama sdAb phage clones against calicheamicin conjugates (FIG. 25); assay type: binding
Experimental: A master plate was generated by inoculating a single colony into wells of a 96-well round-bottom culture plate filled with […] 2×TY supplemented with 100 μg/mL ampicillin, 2% (wt/vol) glucose and 10% (vol/vol) glycerol, and grown overnight at 37° C. These wells were then used to inoculate wells of 96-deepwell plates containing 1 mL of 2×TY medium (100 μg/mL ampicillin+0.1% (wt/v) glucose per well). Plates were incubated them for 3 h at 37° C. and 250 rpm until OD600≈0.5. Nanobody expression was induced with 4 μL of 0.5 M IPTG per well (final concentration of 2 mM) and incubated for an additional 15-24 h at 37° C. and 250 rpm. Nunc Maxisorp 96-well plates were coated as described previously. Plates were washed three times with PBST and blocked with MPBS for 2 h at RT. […] Plates were then washed three times with PBST, where bound phage was detected using an anti-HA tag HRP-conjugated Ab diluted 1:1000 in PBST. Following incubated and five washed with PBST, 100 μL of 1-Step Turbo TMB-ELISA solution was added to each well and incubated for 30 minutes. The reaction was quenched by adding 100 μL of Stop solution to each well and absorbance was measured at 450 nm.
50 μl Dynabeads-calicheamicin were blocked with MPBS (PBS+2% non-fat dry milk) at RT for 30 minutes. Following pre-incubation with 1:50 preimmunized llama plasma, phage solutions were incubated with beads at RT for 30 minutes. […]

## CC[C@@]1(O)C(=O)OCc2c1cc1n(c2=O)Cc2cc3c(CN(C)C)c(O)ccc3nc2-1 [topotecan, reference compound]
[1]
  IC50: 9.3 nM
[2]; absence of 8C2 or 8C2 scFv
  topotecan concentration at which significant cell death was observed: 2.5 nM

## COc1cc2cc(c1Cl)N(C)C(=O)C[C@H](OC(=O)[C@H](C)N(C)C(=O)CCC(C)(C)S)[C@]1(C)O[C@H]1[C@H](C)[C@@H]1C[C@@](O)(NC(=O)O1)[C@H](OC)/C=C/C=C(\C)C2 [DM4]
[3]; 6 h exposure
  IC50: 7.7 nM and 21.5 nM
[3]; 24 h exposure
  IC50: 0.713 nM and 1.84 nM
[4]
  IC50: 18 nM and 18.4 nM

B1: 8C2 scFv (protein)
scFv: EVQLQQSGAELVKPGASVKLSCTASGFNIKDTYIHWVKQRPEQGLEWIGMIDLANDNTKYDPKFQGKATIITDTSSNKAYLQVSSLTSEDTAVYYCATWGAIITLGGWGQGTLVTVSAAKGGGGSGGGGSGGGGSGGGGSDIQMTQSPASLSASVGETVTITCRASGNIHNSLAWYQQIKGRSPQLLVYNAKTLADGVPSRFSGSGSGTQYSLKINSLHPEDFGSYYCQHFWSTPFTFGSGTKLEIKRENLYFQG
modifications: 8C2 scFv
[2]; topotecan with 8C2 mAb or scFv
  effect on topotecan cytotoxicity: right-shifted; also recorded: increased the viability

B2: TF7 (protein)
chain: QVQLQESGGGLAQPGGSLRVSCATSGFTFSSNYYISWVRQAPGRGLEWVSAINTGDGSTYYAHSVKGRFTISRDNAKNTLYLQMNSLKPEDTALYYCARSSLEGRIEKPYDYWGQGTQVTVSS
modifications: TF7 clone
[5]
  binding to trastuzumab deruxtecan: concentration-dependent binding

B3: TA2 (protein)
VHH: QVQLQESGGGLVQPGGSLRVSCAASGFTFSSYYMSWVRQAPGKGLEWVSAINTGTGSTYYADSVKGRFTISSDNAKNTVYLQMSSLKPEDTALYYCARSSLEGRVEKPYDYWGQGTQVTVSS
modifications: TA2 clone
[5]
  binding to trastuzumab deruxtecan: concentration-dependent binding

B4: CG4: Anti-Calicheamicin sdAb, SEQ ID NO:12 (protein)
VHH: QVQLQESGGGLVQAGGSLRLSCAASGRTISGYAMGWFRQAPGKERDLVAAISRSGTSTYYADSVKGRFTISRDNAKNTVYLQMNSLKPEDTAVYYCNAPGGIWGQGTQVTVSS
modifications: CG4
[6]
  fold inhibition of calicheamicin cytotoxicity (IC50 shift): 6.34 fold
[7]
  fold change of calicheamicin IC50: 15.4 fold
[8]; avidin (biotin-calicheamicin) coated plates, 64 μM CG4
  fold decrease of CG4 binding signal by 10 μM calicheamicin: 2 fold
[8]; avidin coated plates
  actual fold reduction considering background: ~4.3 fold
[8]; cetuximab-calicheamicin ELISA and Dynabeads-calicheamicin
  binding to calicheamicin conjugates vs CG4 concentration: apparent calicheamicin binding with increasing concentration; also recorded: increased with increasing concentration
[8]; cetuximab-calicheamicin coated plates
  actual fold reduction considering background: around 3.3 fold
[9]; rescreen of five colonies
  effect of 1 μM free calicheamicin on clone binding: only clone inhibited; also recorded: loss of binding signal
[9]; single colonies
  binding to dynabeads-calicheamicin: high binding
